Source: patent US20170129940A1 (INSTITUTE FOR RESEARCH IN BIOMEDICINE, published 2017)

T1: hCMV UL128 (expressed in HEK293T cells) (human cytomegalovirus, UniProt P16837 28-171)
T1 sequence: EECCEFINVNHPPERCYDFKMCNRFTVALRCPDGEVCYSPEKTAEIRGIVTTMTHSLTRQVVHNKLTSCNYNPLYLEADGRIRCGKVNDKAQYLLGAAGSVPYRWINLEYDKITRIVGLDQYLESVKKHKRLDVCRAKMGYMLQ

T2: hCMV gM + gN (co-expressed in HEK293T cells) (human cytomegalovirus, UniProt P16733 1-372; P16795 22-138)
T2 sequence 1: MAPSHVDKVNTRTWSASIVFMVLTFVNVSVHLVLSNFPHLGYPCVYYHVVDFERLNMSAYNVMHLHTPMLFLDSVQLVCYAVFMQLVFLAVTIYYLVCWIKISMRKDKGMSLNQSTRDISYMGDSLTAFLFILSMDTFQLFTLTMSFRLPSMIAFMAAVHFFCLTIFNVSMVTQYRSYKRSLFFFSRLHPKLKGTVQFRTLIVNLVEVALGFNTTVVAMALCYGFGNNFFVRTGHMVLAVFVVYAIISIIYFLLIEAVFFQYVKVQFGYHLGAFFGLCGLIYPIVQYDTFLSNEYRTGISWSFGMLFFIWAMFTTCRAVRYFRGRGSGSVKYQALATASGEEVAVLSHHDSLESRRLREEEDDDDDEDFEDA
T2 sequence 2: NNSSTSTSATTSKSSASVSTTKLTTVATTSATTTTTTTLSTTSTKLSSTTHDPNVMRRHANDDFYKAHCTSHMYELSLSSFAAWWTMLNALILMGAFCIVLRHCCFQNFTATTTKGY


Columns and labels:
[1] = target: T1, hCMV UL128 (expressed in HEK293T cells); test: cell-based or functional assay
[2] = target: T1, hCMV UL128 (expressed in HEK293T cells); test: cell-based or functional assay; remark: listed apart in the source
[3] = target: T3, hCMV gB (expressed in HEK293T cells) (human cytomegalovirus, UniProt P06473 32-906); test: cell-based or functional assay
T3 sequence (P06473 32-906 limits assumed): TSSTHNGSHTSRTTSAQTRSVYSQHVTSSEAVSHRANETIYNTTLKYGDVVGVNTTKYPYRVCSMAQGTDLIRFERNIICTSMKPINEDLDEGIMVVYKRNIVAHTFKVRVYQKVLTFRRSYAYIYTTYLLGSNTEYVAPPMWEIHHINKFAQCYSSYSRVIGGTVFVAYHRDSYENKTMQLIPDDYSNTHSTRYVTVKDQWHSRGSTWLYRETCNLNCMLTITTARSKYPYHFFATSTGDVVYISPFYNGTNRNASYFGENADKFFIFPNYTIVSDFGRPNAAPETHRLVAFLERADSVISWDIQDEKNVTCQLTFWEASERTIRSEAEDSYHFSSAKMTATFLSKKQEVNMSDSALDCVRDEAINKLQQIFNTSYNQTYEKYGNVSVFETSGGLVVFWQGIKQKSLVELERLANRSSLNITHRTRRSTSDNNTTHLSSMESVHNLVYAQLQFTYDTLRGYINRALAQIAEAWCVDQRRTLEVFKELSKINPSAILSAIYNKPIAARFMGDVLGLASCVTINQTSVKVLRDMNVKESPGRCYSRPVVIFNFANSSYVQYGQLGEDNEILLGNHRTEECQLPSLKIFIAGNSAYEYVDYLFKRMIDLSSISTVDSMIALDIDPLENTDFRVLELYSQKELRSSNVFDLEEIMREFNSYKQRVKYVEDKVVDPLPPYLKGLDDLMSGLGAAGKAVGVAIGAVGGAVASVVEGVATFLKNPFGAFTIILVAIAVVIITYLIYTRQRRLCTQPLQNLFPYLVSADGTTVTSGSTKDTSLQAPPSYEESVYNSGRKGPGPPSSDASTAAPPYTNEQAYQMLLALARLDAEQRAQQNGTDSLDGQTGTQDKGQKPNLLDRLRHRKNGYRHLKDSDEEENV

[4] = target: T3, hCMV gB (expressed in HEK293T cells); test: competitor: 4H9-biotin; cell staining
[5] = target: T3, hCMV gB (expressed in HEK293T cells); test: competitor: 10C6-biotin; cell staining
[6] = target: T3, hCMV gB (expressed in HEK293T cells); test: cell-based or functional assay; remark: listed apart in the source
[7] = target: T3, hCMV gB (expressed in HEK293T cells); test: competitor: 6B4-biotin; cell staining
[8] = target: T3, hCMV gB (expressed in HEK293T cells); test: cell-based or functional assay; remark: listed apart in the source
[9] = target: T3, hCMV gB (expressed in HEK293T cells); test: competitor: 7H3-biotin; cell staining
[10] = target: T3, hCMV gB (expressed in HEK293T cells); test: competitor: 5F1-biotin; cell staining
[11] = target: T3, hCMV gB (expressed in HEK293T cells); test: competitor: 2B11-biotin; cell staining
[12] = target: T4, hCMV gH + gL + UL128 + UL130 (co-expressed in HEK293T cells) (human cytomegalovirus, UniProt P12824 24-743; P16832 31-278; P16837 28-171; P16772 1-214); test: cell-based or functional assay
[13] = target: T4, hCMV gH + gL + UL128 + UL130 …; test: cell-based or functional assay; remark: listed apart in the source
[14] = target: T2, hCMV gM + gN (co-expressed in HEK293T …); test: cell-based or functional assay
[15] = target: T2, hCMV gM + gN (co-expressed in HEK293T …); test: cell-based or functional assay; remark: listed apart in the source
[16] = target: T5, hCMV gH (expressed in HEK293T cells) (human cytomegalovirus, UniProt P12824 24-743); test: cell-based or functional assay
[17] = target: T5, hCMV gH (expressed in HEK293T cells); test: cell-based or functional assay; remark: listed apart in the source

| Binder | 90% Neutralization ARPE [3] | 90% Neutralization MRC-9 [3] | Inhibition of binding (%) [4] | Inhibition of binding (%) [5] | 50% Neutralization BM-MSC [6] | 50% Neutralization Mo-DC [6] | Inhibition of binding (%) [7] | 50% Neutralization ARPE [8] | 50% Neutralization MRC-9 [8] | Inhibition of binding (%) [9] | Inhibition of binding (%) [10] | Inhibition of binding (%) [11] | also measured |
| --- | --- | --- | --- | --- | --- | --- | --- | --- | --- | --- | --- | --- | --- |
| 15D8 (antibody, V domains shown) VH: EVQLVQSGAEVKKPGESLKISCQASGYSFTNYWIAWVRQMPGKGLEWMGIIYPGDSDIKYSPSFRGQVTISADKSISNAFLQWRSLRASDTAMYYCARHAIRGDGFDYWGQGTLVTVSS VL: SYELTQPPSVSVSPGQTATITCSGDKLGEKYACWYQQKPGQSPVLVMYQDTKRPSGIPERFSGSNSGNTATLTISGTRAMDEADYYCQAWDTNTVIFGGGTKLTVL | – | – | – | – | – | – | – | – | – | – | – | – | 90% Neutralization ARPE [1]: 0.008 µg/mL; 90% Neutralization MRC-9 [1]: > 10 µg/mL; 50% Neutralization ARPE [2]: < 0.001 µg/mL; 50% Neutralization MRC-9 [2]: > 2 µg/mL |
| 7H3 (antibody, V domains shown, human IgG; also called 7H3-biotin) VH: QVQLVQSGAEVKNPGASVKVSCKASGYTFTDYYIHWVRQAPGQGLEWMGWFNPNSGGTNFVQNFQGRVTMTRDTSISTAYMELSRLRSDDTAMYYCAKDSAKTASAYYGLNFFYYGMDVWGQGTTVTVSS VL: QSVLSQPPSASGTPGQRVTISCSGSSSNIGKNYVYWYQQVPGTAPKLLMFKNNQRPSGVPDRFSGSKSGTSASLAISGLRSEDEADYYCSAWDGSLSRPLFGGGTKVTVL | 0.6 µg/mL | 3 µg/mL | 0% | 0% | 2 µg/mL | 0.06 µg/mL | 0% | > 2 µg/mL | ≤ 2 µg/mL | 100% | 0% | 0% | – |
| 8I21 (antibody, V domains shown) VH: LVELVESGGGVVQPGRSLRLSCAASGFTFSSDGMHWVRQSPGRGLEWVAFISSDGSTPYYADSVKGRFTISRDNSKNTLYLQMNSLRAEDTAMYFCAKDWALFRWLRTFDHWGQGTLVTVSS VL: not shown | – | – | – | – | – | – | – | – | – | – | – | – | 90% Neutralization ARPE [12]: 0.03 µg/mL; 90% Neutralization MRC-9 [12]: > 10 µg/mL; 50% Neutralization ARPE [13]: < 0.01 µg/mL; 50% Neutralization MRC-9 [13]: > 2 µg/mL |
| 5F1 (antibody, V domains shown, human IgG; also called 5F1-biotin) VH: AVQLVESGGGLAQPGRSLRLSCKVSGFTFSSYEMNWVRQAPGKGLEWIAYIDFTGSTIYYADSVKGRFTISRDTARNSLYLQMNKLRVEDTAVYYCVRDAGRWGTSWYYFDYWGQGTLVTVSS VL: QSVLTQPPSVSGAPGQRVTISCTGLSSNIGAGYDIHWYQQIPGKAPKLLIYGNNNRPSGVPDRFSGSKSGTSVSLAITGLQAEDEADYYCQSYDSSLNGWVFGGGTRLTVL | 0.1 µg/mL | 0.5 µg/mL | 100% | 100% | 0.3 µg/mL | 0.05 µg/mL | 0% | ≤ 2 µg/mL | ≤ 2 µg/mL | 0% | 100% | 100% | – |
| 10C6 (antibody, V domains shown, human IgG; also called 10C6-biotin) VH: AVQLVESGGGLAQPGRSLRLSCKVSGFSFSNFEMNWVRQAPGKGLEWIAYIDFTGSTIYYSDSVKGRFTISRDTARNSLYLQMNKLRVEDTAVYYCVRDAGRWGTSWYYFDYWGQGTLVTVSS VL: QSVLTQPPSVSGAPGQRVTISCTGLSSNIGAGYDIHWYQQIPGKAPKLLIYGNNNRPSGVPDRFSGSKSGTSVSLAITGLQAEDEADYYCQSYDSSLNGWVFGGGTRLTVL | 0.2 µg/mL | 0.75 µg/mL | 100% | 100% | 0.3 µg/mL | 0.02 µg/mL | 0% | ≤ 2 µg/mL | ≤ 2 µg/mL | 0% | 100% | 100% | – |
| 2B11 (antibody, V domains shown, human IgG; also called 2B11-biotin) VH: AVRLVESGGGLAQPGRSLRLSCQVSGFTFGSYEMNWVRQAPGKGLEWIAYIDFTGSTIYYADSVKGRFTISRNTARNSLYLQMNSLRVEDTAVYYCVRDAGRWGTSWYYFDYWGQGTRVTVSP VL: QSVLTQPPSVSGAPGQRVTISCTGISSNIGAGYDIHWYQQIPGKAPKLLVYGNNNRPSGVPDRFSGSKSGTSVSLAITGLQVEDEADYYCQSYDNSLNGWVFGGGTRLTVL | 0.2 µg/mL | 0.75 µg/mL | 100% | 100% | – | – | 0% | – | – | 0% | 100% | 100% | – |
| 6L3 (antibody, V domains shown) VH: EVRLEESGGGLVQPGGSLRLSCAASGFTVSTTYMAWVRQAPGKGLEWVSLIHTGGIFGVGGTSYADSVKGRFTISRDTSKNTVSLQMSSLRVEDTAIYFCAREHRGTIDAFDAWGQGTVVIVSS VL: DIHMTQSPSSLSASVGDRVTITCRASQNIRNYLNWYQHKPGKAPKLLIYTTSRLQSGVPSRFSGSGSGTDFTLTVNSLQPEDFASYYCQQSYDGWTFGQGTKVEMK | – | – | – | – | – | – | – | – | – | – | – | – | 90% Neutralization ARPE [14]: 10 µg/mL; 90% Neutralization MRC-9 [14]: 30 µg/mL; 50% Neutralization ARPE [15]: ≤ 2 µg/mL |
| 4H9 (antibody, V domains shown, human IgG; also called 4H9-biotin) VH: AVQLVESGGGLVRPGGSLRLSCAASGFTFSSHEMHWVRQAPGKGLEWLSYIDFTGSIIYYADSVRGRFTISRDNTKKSLFLQMNSLRDEDTALYYCARDGGRWGTSWYYFDYWGQGVLVTVSS VL: QSVLTQPPSVSGAPGQRVTITCTGSSSNFGAGYDGHWYQQLPGTAPKLLIYGSNRPSGVPDRFSGSKSGTSVSLAITGLQADDEADYYCQSYDSSLSAWVFGGGTKLTVL | 0.4 µg/mL | 10 µg/mL | 100% | 100% | – | – | 0% | ≤ 2 µg/mL | ≤ 2 µg/mL | 0% | 100% | 100% | – |
| 6B4 (antibody, V domains shown, human IgG; also called 6B4-biotin) VH: QVQLVESGGGVVQPGRSLRLSCAASGFRFNEFNMHWVRQAPGKGLEWVAVISIDGRHKYNADSVEGRFTISRDNSRNTLYLQMNSLRVEDTALYYCVTDGKAVDGFSGILEFWGQGTPVTVST VL: EIVLTQSPATLSLSPGERATLSCWASQSVGGYLAWYQQKPGQAPRLLIYDASIRATGIPARFSGSGSGTHFTLTINSLEPEDFAVYYCQQRNNWPPLTFGGGTKVEIK | 0.15 µg/mL | 1 µg/mL | 0% | 0% | 2 µg/mL | 0.11 µg/mL | 100% | ≤ 2 µg/mL | ≤ 2 µg/mL | 0% | 0% | 0% | – |
| 3G16 (antibody, V domains shown) VH: QSALTQPASVSGSPGESITISCTGTISDVGAYNSVSWYQQHSGTAPELIIYDVTNRPAGVSSRFSGSKSGNTASLTISWLQSEDEAEYYCSSYTTSDTYVFGSGTQVTVL V domain: RAQLVQSAAEMKNPGASVKVSCEASGYTFTGYYVHWMRQAPGQGLEWMGWINPMTGATKSPQKFQGRVTMTRDTSTTATHIELTRLRSDDSAVFFCARGGPTSTRITGKRHFDLWGRGTLITVAS | – | – | – | – | – | – | – | – | – | – | – | – | 90% Neutralization ARPE [16]: 0.3 µg/mL; 90% Neutralization MRC-9 [16]: 1 µg/mL; 50% Neutralization ARPE [17]: ≤ 2 µg/mL; 50% Neutralization MRC-9 [17]: ≤ 2 µg/mL |
